Results as given in patent US11046988B2, “Process for the modification of a glycoprotein using a β-(1,4)-N-acetylgalactosaminyl transferase or a mutant thereof” (Synaffix B.V., priority 2014, dated 2021).

Key:
β-(1,4)-GalNAcT = β-(1,4)-GalNAcT (Caenorhabditis elegans, UniProt Q9GUM2); conditions: sugar nucleotide as donor substrate; cited from earlier work
[1] = system: trimmed trastuzumab (core GlcNAc(Fuc) / core GlcNAc, glycan of formula (1)); assay: Glycosyltransfer of sugar derivative to trimmed (Endo S deglycosylated) trastuzumab, MS analysis; assay type: biochemical; conditions: UDP-F2-GalNBzN3 (24) 1 mM, enzyme 0.5 mg/mL, overnight
Protocol: Trimming of IgG glycans was performed using Endo S from Streptococcus pyogenes (commercially available from Genovis, Lund, Sweden). The IgG (10 mg/mL) was incubated with Endo S (40 U/mL) in 25 mM Tris pH 8.0 for approximately 16 hours at 37° C. The deglycosylated IgG was concentrated and washed with 10 mM MnCl2 and 25 mM Tris-HCl pH 8.0 using an Amicon Ultra-0.5, Ultracel-10 Membrane (Millipore).
Trastuzumab was subjected to the trimming protocol above. Analysis of the trimmed antibody was performed on a JEOL AccuToF equipped with an Agilent 1100 HPLC. Samples (2 μL) were reduced with DTT (2 μL) during 10 min and subsequently diluted with H2O (40 μL) prior to injection. […] The two peaks of heavy chain belonged to one major product (49496 Da, 90% of total heavy chain), resulting from core GlcNAc(Fuc) substituted trastuzumab, and a minor product (49351 Da, ±10% of total heavy chain), resulting from core GlcNac substituted trastuzumab. This is an example of a glycoprotein comprising a glycan according to formula (1).
A solution of 50 μg (modified) IgG, 1 M Tris-HCl pH 8.0, 1 mM EDTA and 30 mM DTT with a total volume of approximately 70 μL was incubated for 20 minutes at 37° C. to reduce the disulfide bridges allowing to analyze both light and heavy chain. If present, azide-functionalities are reduced to amines under these conditions. Reduced samples were washed trice with milliQ using an Amicon Ultra-0.5, Ultracel-10 Membrane (Millipore) and concentrated to 10 μM (modified) IgG. The reduced IgG was analyzed by electrospray ionization time-of-flight (ESI-TOF) on a JEOL AccuTOF. Deconvoluted spectra were obtained using Magtran software.
Enzymatic introduction of galactose derivative (e.g. azido-containing sugar) onto IgG was effected with a GalNAc-transferase or a mutant thereof. The deglycosylated IgG (prepared as described above, 10 mg/mL) was incubated with a modified UDP-galactose derivative (e.g. an azido-modified sugar-UDP derivative) (0.4 mM) and GalNAcT (1 mg/mL) in 10 mM MnCl2 and 25 mM Tris-HCl pH 8.0 for 16 hours at 30° C. The functionalized IgG (e.g. azido-functionalized IgG) was incubated with protein A agarose (40 μL per mg IgG) for 2 hours at 4° C. The protein A agarose was washed three times with PBS and the IgG was eluted with 100 mM glycine-HCl pH 2.7. The eluted IgG was neutralized with 1 M Tris-HCl pH 8.0 and concentrated and washed with PBS using an Amicon Ultra-0.5, Ultracel-10 Membrane (Millipore) to a concentration of 15-20 mg/mL.
Enzymatic introduction of galactose derivative (e.g. thio-containing sugar 21) onto IgG was effected with a GalNAc-transferase or a mutant thereof. The deglycosylated IgG (prepared as described above, 10 mg/mL) was incubated with a modified UDP-galactose derivative (e.g. an thio-modified sugar-UDP derivative) (2 mM) and GalNAcT (0.2 mg/mL) in 10 mM MnCl2 and 50 mM Tris-HCl pH 6.0 for 16 hours at 30° C. The functionalized IgG (e.g. thio-functionalized trastuzumab) was incubated with protein A agarose (40 μL per mg IgG) for 1 hours at rt. The protein A agarose was washed three times with TBS (pH 6.0) and the IgG was eluted with 100 mM glycine-HCl pH 2.5. The eluted IgG was neutralized with 1 M Tris-HCl pH 7.0 and concentrated and washed with 50 mM Tris-HCl pH 6.0 using an Amicon Ultra-0.5, Ultracel-10 Membrane (Millipore) to a concentration of 15-20 mg/mL.

[2] = cited from earlier work

Chain of β-(1,4)-GalNAcT (Q9GUM2 whole entry): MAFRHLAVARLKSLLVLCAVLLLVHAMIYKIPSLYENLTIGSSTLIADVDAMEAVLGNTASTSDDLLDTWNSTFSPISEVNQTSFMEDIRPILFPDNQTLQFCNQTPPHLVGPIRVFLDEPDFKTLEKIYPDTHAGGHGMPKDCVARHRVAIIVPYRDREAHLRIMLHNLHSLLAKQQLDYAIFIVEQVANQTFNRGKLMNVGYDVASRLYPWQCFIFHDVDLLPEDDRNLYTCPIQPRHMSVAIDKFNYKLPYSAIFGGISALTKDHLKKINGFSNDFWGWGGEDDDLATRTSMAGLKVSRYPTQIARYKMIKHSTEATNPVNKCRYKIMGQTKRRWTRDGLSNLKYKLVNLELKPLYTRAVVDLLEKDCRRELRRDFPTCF

Row | Molecule | cumulative conversions of the major and minor product, F2-GalNBzN3 transfer [1] | further results
1 | CC(=O)N[C@H]1[C@@H](OP(=O)(O)OP(=O)(O)OC[C@H]2O[C@@H](n3ccc(=O)[nH]c3=O)[C@H](O)[C@@H]2O)O[C@H](CO)[C@@H](O)[C@@H]1O [UDP-GlcNAc] |  | transferase activity remaining (compared with UDP-GalNAc) (β-(1,4)-GalNAcT): 0.7%
2 | TnGalNAcT(W336H): T. ni GalNAcT mutant, tryptophan 336 to histidine, SEQ ID NO: 51 (protein) MGGRATRALRLLLLLVLALAAVEYLFGSILDASPLRTYLYTPLYNATQPTLRNVERLAANWPKKIPSNYIEDSEEYSIKNISLSNHTTRASVVHPPSSITETASKLDKNMTIQDGAFAMISPTPLLITKLMDSIKSYVTTEDGVKKAEAVVTLPLCDSMPPDLGPITLNKTELELEWVEKKFPEVEWGGRYSPPNCTARHRVAIIVPYRDRQQHLAIFLNHMHPFLMKQQIEYGIFIVEQEGNKDFNRAKLMNVGFVESQKLVAEGWQCFVFHDIDLLPLDTRNLYSCPRQPRHMSASIDKLHFKLPYEDIFGGVSAMTLEQFTRVNGFSNKYWGHGGEDDDMSYRLKKINYHIARYKMSIARYAMLDHKKSTPNPKRYQLLSQTSKTFQKDGLSTLEYELVQVVQYHLYTHILVNIDERS | 62% | 
3 | TnGalNAcT(I299M): T. ni GalNAcT mutant, isoleucine 299 to methionine, SEQ ID NO: 45 (protein) MGGRATRALRLLLLLVLALAAVEYLFGSILDASPLRTYLYTPLYNATQPTLRNVERLAANWPKKIPSNYIEDSEEYSIKNISLSNHTTRASVVHPPSSITETASKLDKNMTIQDGAFAMISPTPLLITKLMDSIKSYVTTEDGVKKAEAVVTLPLCDSMPPDLGPITLNKTELELEWVEKKFPEVEWGGRYSPPNCTARHRVAIIVPYRDRQQHLAIFLNHMHPFLMKQQIEYGIFIVEQEGNKDFNRAKLMNVGFVESQKLVAEGWQCFVFHDIDLLPLDTRNLYSCPRQPRHMSASMDKLHFKLPYEDIFGGVSAMTLEQFTRVNGFSNKYWGWGGEDDDMSYRLKKINYHIARYKMSIARYAMLDHKKSTPNPKRYQLLSQTSKTFQKDGLSTLEYELVQVVQYHLYTHILVNIDERS | 26% | 
4 | TnGalNAcT(L302G): T. ni GalNAcT mutant, leucine 302 to glycine, SEQ ID NO: 44 (protein, His6-TnGalNAcT(33-421; L302G)) MGSSHHHHHHSSGLVPRGSHMSPLRTYLYTPLYNATQPTLRNVERLAANWPKKIPSNYIEDSEEYSIKNISLSNHTTRASVVHPPSSITETASKLDKNMTIQDGAFAMISPTPLLITKLMDSIKSYVTTEDGVKKAEAVVTLPLCDSMPPDLGPITLNKTELELEWVEKKFPEVEWGGRYSPPNCTARHRVAIIVPYRDRQQHLAIFLNHMHPFLMKQQIEYGIFIVEQEGNKDFNRAKLMNVGFVESQKLVAEGWQCFVFHDIDLLPLDTRNLYSCPRQPRHMSASIDKGHFKLPYEDIFGGVSAMTLEQFTRVNGFSNKYWGWGGEDDDMSYRLKKINYHIARYKMSIARYAMLDHKKSTPNPKRYQLLSQTSKTFQKDGLSTLEYELVQVVQYHLYTHILVNIDERS | 14% | 
5 | β4GalT(Y289L,M344H): double mutant β-1,4-galactosyltransferase 1 described by Ramakrishnan et al. (protein, UniProt P08037 1-402, looked up, variant Y289L M344H) MKFREPLLGGSAAMPGASLQRACRLLVAVCALHLGVTLVYYLAGRDLRRLPQLVGVHPPLQGSSHGAAAIGQPSGELRLRGVAPPPPLQNSSKPRSRAPSNLDAYSHPGPGPGPGSNLTSAPVPSTTTRSLTACPEESPLLVGPMLIEFNIPVDLKLVEQQNPKVKLGGRYTPMDCISPHKVAIIIPFRNRQEHLKYWLYYLHPILQRQQLDYGIYVINQAGESMFNRAKLLNVGFKEALKDYDYNCFVFSDVDLIPMNDHNTYRCFSQPRHISVAMDKFGFSLPYVQLFGGVSALSKQQFLSINGFPNNYWGWGGEDDDIYNRLAFRGMSVSRPNAVIGKCRHIRHSRDKKNEPNPQRFDRIAHTKETMLSDGLNSLTYMVLEVQRYPLYTKITVDIGTPS |  | activity in the presence of Mg2+ ([2]; Mg2+): 25-30%; loss of Mn2+-dependent activity ([2]; Mn2+): 98%
